Reference: publication PMC12449476, “Transient ligand contacts of the intrinsically disordered N-terminus of neuropeptide Y2 receptor regulate arrestin-3 recruitment” (Nature Communications, 2025)
Several values for one entry are separate records, joined by “and”; a condition that tells them apart may be missing. Identical values can stand only once.

How the values were obtained:
[1] = target: Neuropeptide Y (Homo sapiens) (UniProt P01303); conditions: cited from earlier work
[2] = target: Δ2–41 variant or charge reversal in the acidic patches (Nluc-Y2R-eYFP variants, ligand dissociation); experiment: FRET or BRET; NanoBRET ligand dissociation from the low-affinity state: membranes pre-incubated with 300 nM K18-Tamra-NPY for 10 min, re-binding blocked by 50 µM JNJ-31020028, BRET decay for 20 min, one-phase dissociation fit
[3] = target: Nluc-Y2R-eYFP D42A-S43A-T44A (human) (UniProt P49146); experiment: FRET or BRET; NanoBRET equilibrium binding: dilution series of K18-Tamra-NPY on HEK293 membranes with Nluc-Y2R-eYFP variants, HBSS, 20 mM HEPES pH 7.4, 0.1% BSA, 10 min at room temperature; unspecific binding with 100 µM JNJ-31020028; biphasic fit (high- and low-affinity state)
Nluc-Y2R-eYFP D42A-S43A-T44A (human), sequence (P49146 whole entry D42A/S43A/T44A): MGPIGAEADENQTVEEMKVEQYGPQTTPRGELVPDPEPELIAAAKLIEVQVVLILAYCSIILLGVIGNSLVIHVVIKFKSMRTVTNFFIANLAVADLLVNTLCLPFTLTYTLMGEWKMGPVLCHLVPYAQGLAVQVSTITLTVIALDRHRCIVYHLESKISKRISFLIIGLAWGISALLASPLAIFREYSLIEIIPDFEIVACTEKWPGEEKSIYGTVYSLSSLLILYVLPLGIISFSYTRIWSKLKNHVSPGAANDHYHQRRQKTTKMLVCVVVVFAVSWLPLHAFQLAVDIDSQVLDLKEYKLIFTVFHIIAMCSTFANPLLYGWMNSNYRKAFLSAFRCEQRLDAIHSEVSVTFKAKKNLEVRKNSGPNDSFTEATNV

[4] = target: Nluc-Y2R-eYFP Δ2–41 (human) (UniProt P49146); experiment: as above
Nluc-Y2R-eYFP Δ2–41 (human), sequence (P49146 other isoform, or with tags, fused parts or gaps): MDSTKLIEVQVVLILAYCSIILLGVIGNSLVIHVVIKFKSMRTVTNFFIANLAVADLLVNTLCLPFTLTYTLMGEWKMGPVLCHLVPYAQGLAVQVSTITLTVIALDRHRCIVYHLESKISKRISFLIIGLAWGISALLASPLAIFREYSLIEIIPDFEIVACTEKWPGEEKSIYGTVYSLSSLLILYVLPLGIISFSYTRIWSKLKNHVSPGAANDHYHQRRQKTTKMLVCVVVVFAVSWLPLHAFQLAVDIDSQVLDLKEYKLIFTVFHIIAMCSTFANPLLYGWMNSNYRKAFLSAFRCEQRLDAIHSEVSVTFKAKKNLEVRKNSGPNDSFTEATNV

[5] = target: Y2R-eYFP D35–E39K (human) (UniProt P49146); experiment: FRET or BRET; BRET between Nluc-arrestin-3 and Y2R-eYFP variants in live HEK293 cells, concentration-response to NPY, read 10 min after stimulation at 37 °C
Y2R-eYFP D35–E39K (human), sequence (P49146 whole entry E39K): as the sequence (P49146 whole entry D42A/S43A/T44A) above, with E39K, A42D, A43S, A44T counted along it

[6] = target: Tetramethylrhodamine-NPY (Tamra-NPY) (porcine); experiment: fluorescence polarisation; fixed 50 nM Tamra-NPY, titrated with Y2R-loaded bicelles (x axis: log c, bicelles / M); empty bicelles as control

lipid-reconstituted cysteine-deficient Y2R (Y2R-Δ6), sequence (P49146 whole entry, stated change not applied): as the sequence (P49146 whole entry D42A/S43A/T44A) above, with A42D, A43S, A44T counted along it
Neuropeptide Y receptor type 2, sequence (P49146 whole entry): as the sequence (P49146 whole entry D42A/S43A/T44A) above, with A42D, A43S, A44T counted along it

**Q.** Which Kd [1] does the source give for “Neuropeptide Y receptor type 2 (from UniProt P49146)” here?
**A.** 300 nM

**Q.** Which fold increase of ligand dissociation (koff) against wild-type Y2R [2] does the source give for K18-Tamra-NPY (peptide) here?
**A.** 2 fold and 3 fold

**Q.** And the fold reduction of the affinity of the low-affinity state against wild-type Y2R [3]?
**A.** 3 fold

**Q.** And the fold reduction of the low-affinity binding constant against wild-type Y2R [4]?
**A.** 2 fold

**Q.** With “Nluc-arrestin-3 (from UniProt P32121 1-409) (natural protein)” as the substance, how does the BRETmax [5] read?
**A.** 49%

**Q.** Which Kd [6] does the source give for “lipid-reconstituted cysteine-deficient Y2R (Y2R-Δ6) (from UniProt P49146 1-381) (receptor)” here?
**A.** 44.5 nM
